Bounds are passed on as bounds.

Data set [1] concerns the target E4 zinc finger protein (four C-terminal fingers of E2C) (artificial). Briefly: EMSA. The conditions noted are these: tags: no cleavage domain. For orientation: In EMSA bound probe runs differently from free probe, usually more slowly.
Data set [2] has as its target E6 (E2C) six-finger zinc finger protein (artificial). Briefly: EMSA. Particulars: tags: no cleavage domain.
Data set [3] addresses E3 zinc finger protein (three C-terminal fingers of E2C) (artificial). Description: EMSA. Particulars: tags: no cleavage domain.
Data set [4] concerns the target E5 zinc finger protein (five C-terminal fingers of E2C) (artificial). Briefly: EMSA. Particulars: tags: no cleavage domain.
A further data set has as its target P3 ZFN FCD K441E (artificial, UniProt P14870 SEQ:1-284, K441E (FokI numbering)). Description: cell_activity. The conditions noted are these: chain copies: 2 inferred.
Another data set has as its target P3 ZFN FCD S418P (artificial, UniProt P14870 SEQ:1-284, S418P (FokI numbering)). Briefly: cell_activity. Particulars: chain copies: 2 inferred.

Chain of E5 zinc finger protein (five C-terminal fingers of E2C) (artificial) (chain, as listed by the source): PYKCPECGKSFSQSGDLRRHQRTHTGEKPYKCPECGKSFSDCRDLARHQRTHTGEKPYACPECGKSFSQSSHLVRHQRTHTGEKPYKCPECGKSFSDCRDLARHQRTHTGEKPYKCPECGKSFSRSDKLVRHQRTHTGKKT
Chain of P3 ZFN FCD S418P (P14870 other isoform, or with tags, fused parts or gaps S418P (FokI numbering) | S418P S418P): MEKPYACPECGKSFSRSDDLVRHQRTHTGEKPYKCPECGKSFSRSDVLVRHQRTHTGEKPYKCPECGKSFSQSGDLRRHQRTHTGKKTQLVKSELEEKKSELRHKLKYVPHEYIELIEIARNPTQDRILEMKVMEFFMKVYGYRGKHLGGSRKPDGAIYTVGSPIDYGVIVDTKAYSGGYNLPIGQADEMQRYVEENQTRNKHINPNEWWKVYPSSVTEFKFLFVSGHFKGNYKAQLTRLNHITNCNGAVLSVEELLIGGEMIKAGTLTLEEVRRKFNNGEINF
Chain of E4 zinc finger protein (four C-terminal fingers of E2C) (artificial) (chain, as listed by the source): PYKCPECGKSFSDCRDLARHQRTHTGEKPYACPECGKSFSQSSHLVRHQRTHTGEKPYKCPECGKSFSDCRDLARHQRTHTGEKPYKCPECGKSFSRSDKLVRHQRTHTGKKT
Chain of P3 ZFN FCD K441E (P14870 other isoform, or with tags, fused parts or gaps K441E (FokI numbering) | K441E K441E): as the sequence (P14870 other isoform, or with tags, fused parts or gaps S418P (FokI numbering) | S418P S418P) above, with P123S, K146E counted along it
Chain of E6 (E2C) six-finger zinc finger protein (artificial) (chain, as listed by the source): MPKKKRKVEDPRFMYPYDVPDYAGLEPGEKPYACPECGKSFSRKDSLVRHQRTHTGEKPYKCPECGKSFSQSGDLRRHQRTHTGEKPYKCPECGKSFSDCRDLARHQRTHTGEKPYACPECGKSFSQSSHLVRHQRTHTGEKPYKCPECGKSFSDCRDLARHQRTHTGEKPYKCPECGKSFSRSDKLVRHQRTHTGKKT
Chain of E3 zinc finger protein (three C-terminal fingers of E2C) (artificial) (chain, as listed by the source): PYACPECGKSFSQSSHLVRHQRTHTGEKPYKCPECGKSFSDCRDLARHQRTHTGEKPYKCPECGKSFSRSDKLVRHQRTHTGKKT

B1: E4 binding site (dsDNA)
DNA 1: GGGGCCGGAGCC
DNA 2: GGCTCCGGCCCC
As to B1, binding in data set [1] was put at a Kd of 10.6 nM.

B2: E6 (E2C) binding site (dsDNA)
DNA 1: GGGGCCGGAGCCGCAGTG
DNA 2: CACTGCGGCTCCGGCCCC
With B2, in data set [2], binding was put at a Kd of 0.85 nM.

B3: E3 binding site (dsDNA)
DNA 1: GGGGCCGGA
DNA 2: TCCGGCCCC
Take B3: in data set [3], binding was put at a Kd of 35 nM.

B4: E5 binding site (dsDNA)
DNA 1: GGGGCCGGAGCCGCA
DNA 2: TGCGGCTCCGGCCCC
For the molecule B4, the dissociation constant (Kd) – broadly, a measure of binding affinity in units of concentration – in data set [4] amounted to 4.2 nM.

B5: P3/P3 cleavage site, MluI spacer (dsDNA)
DNA 1: CGCCACTGCACGCGTGCAGTGGCG
DNA 2: CGCCACTGCACGCGTGCAGTGGCG
Regarding B5, the binding signal with P3 ZFN FCD K441E is > 5 fold of wt FCD activity; with P3 ZFN FCD S418P it was > 10 fold of wt FCD activity.

The values are drawn from patent publication US20120329067, “Methods of Generating Zinc Finger Nucleases Having Altered Activity” (published 2012).
